Legend:
[1] = target: T1, human IGF-1R(1-903)-Fc (human, UniProt P08069 31-933); test: SPR, Fab over hIGF-1R-Fc captured by anti-Fc, 1:1 model, apparent affinity
T1 construct: Made by Biogen Idec; Multimerises through IGF-1R and Fc; also called hIGF-1R-Fc; IGF-1R-Fc; not shown: C-terminal human IgG1-Fc tag
Procedure: (§1) Experiments were performed on a Biacore 3000 set to 25° C. using HBS-EP (Biacore, Cat. No. BR-1001-88) as the running buffer. An anti-human IgG-Fc antibody (2C11 from Biogenesis, Cat. No. 5218-9850) was immobilized to saturation on a Biacore CM5 chip (Cat. No. BR-1000-14) surface by injection at 500 nM in HBS-EP buffer. mIGF-1R-Fc or hIGF-1R-Fc was captured on the chip surface by injecting 40 μL of 20 nM receptor at 3 μL/min. […] Dissociation of Fab was measured for ˜27 minutes. Fab was serially diluted from 25 to 0.4 nM to obtain concentration dependent kinetic binding curves. Regeneration of the surface chip between each injection series was performed using 3×10 μL injections of 100 mM glycine pH 2.0 at 60 μL/min. Each curve was double referenced using (1) data obtained from a CM5 chip surface devoid of the anti-IgG antibody 2C11 and (2) data from a primary injection of receptor followed by a secondary injection of HBS-EP buffer.

[2] = target: T2, human IGF-1R(1-902)-His10 (human, UniProt P08069 31-932); test: SPR, Fab over IGF-1R-10His captured by anti-His
T2 construct: Cy5-labelled in tr-FRET; also called hIGF-1R-His10; IGF-1R-His
Procedure: All surface plasmon resonance (SPR) experiments were performed on a Biacore 3000 set to 25° C. using HBS-EP (Biacore, Cat. No. BR-1001-88) as the running buffer. A biotin-labeled anti-HisTag antibody (biotin-PENTA-His, Qiagen Cat. No. 34440) was immobilized to saturation on a Biacore SA chip (Cat. No. BR-1000-32) surface by injection at 500 nM in HBS-EP buffer. […] Subsequent to IGF-1R injections, flow rates were increased to 20 μL/min. A second, 130 μL injection of anti-IGF-1R antibody or Fab was performed to investigate interactions with the receptor. Each antibody and Fab was serially diluted from 64 nM to 0.5 nM to obtain concentration dependent kinetic binding curves. Each injection series was regenerated using 3×10 μL injections of 10 mM Acetate, pH 4.0, at 20 μL/min. Each curve was double referenced using (1) data obtained from a streptavidin surface devoid of IGF-1R and (2) data from a primary injection of IGF-1R followed by a secondary injection of HBS-EP buffer. The concentration series for each antibody and Fab was fit to the 1:1 binding model provided within the BiaEvaluation software of the manufacturer.
To obtain discrete affinities, Fab fragments of each antibody were generated using papain digestion as described above.

[3] = target: T3, hIGF-1R-Fc mutant SD003 (T188F) (human, UniProt P08069 31-933); test: SPR, M13-C06 Fab over captured mutant
T3 construct: not shown: C-terminal human IgG1-Fc tag
Procedure: (§2) After, completion of the receptor-Fc loading step, flow rates were elevated to 5 μl/min. […] At the end of each sensorgram, the flow rate was elevated to 30 μl/min and the chip surface was regenerated by 2×10 μL injections of 0.1 M glycine, pH 2.

[4] = target: T4, hIGF-1R-Fc mutant SD018 (E665A) (human, UniProt P08069 31-933); test: SPR, M13-C06 Fab over captured mutant
T4 construct: not shown: C-terminal human IgG1-Fc tag
Procedure: as §2

[5] = target: T5, hIGF-1R-Fc mutant SD002 (M156A) (human, UniProt P08069 31-933); test: SPR, M13-C06 Fab over captured mutant
T5 construct: not shown: C-terminal human IgG1-Fc tag
Procedure: as §2

[6] = target: T6, hIGF-1R-Fc mutant SD019 (E739W, L741F) (human, UniProt P08069 31-933); test: SPR, M13-C06 Fab over captured mutant
T6 construct: not shown: C-terminal human IgG1-Fc tag
Procedure: as §2

[7] = target: T7, hIGF-1R-Fc mutant SD004 (S210H_A211Q) (human, UniProt P08069 31-933); test: SPR, M13-C06 Fab over captured mutant
T7 construct: not shown: C-terminal human IgG1-Fc tag
Procedure: as §2

[8] = target: T8, hIGF-1R-Fc mutant SD006 (A227K) (human, UniProt P08069 31-933); test: SPR, M13-C06 Fab over captured mutant
T8 construct: also called SD0006; not shown: C-terminal human IgG1-Fc tag
Procedure: as §2

[9] = target: T1, human IGF-1R(1-903)-Fc; test: SPR, Fab over captured hIGF-1R-Fc
Procedure: as §1

[10] = target: T9, human IGF-1R expressed on cells (human, UniProt P08069 31-1367); test: flow cytometry, MCF-7 cells
T9 construct: On MCF-7 tumor cells or on 3T3/CHO transfectants; precursor is processed into alpha and beta subunits; Signal peptide 1-30 left out as stated; also called wild type IGF-1R; IGF-1R 3T3

B1: M13-C06 Fab (Fab, V domains shown)
VH: EVQLLESGGGLVQPGGSLRLSCAASGFTFSIYRMQWVRQAPGKGLEWVSGISPSGGTTWYADSVKGRFTISRDNSKNTLYLQMNSLRAEDTAVYYCARWSGGSGYAFDIWGQGTMVTVSS
VL: DIQMTQSPLSLSASVGDRVTITCQASRDIRNYLNWYQQKPGKAPKLLIYDASSLQTGVPSRFGGSGSGTDFSFTIGSLQPEDIATYYCQQFDSLPHTFGQGTKLEIK
notes: Human Fab from a phage library, kappa light chain
Kd [1]: 0.978 nM | Kd [2]: 1.3 nM | Biacore Relative RUmax [3]: 1 | Biacore Relative RUmax [4]: 1.7 | Biacore Relative RUmax [5]: 1.2 | Biacore Relative RUmax [6]: 1.9 | Biacore Relative RUmax [7]: 0.8 | Biacore Relative RUmax [8]: 1.7 | koff [9]: 0.000833 s⁻¹ | kon [9]: 852000 M⁻¹ s⁻¹ | EC50 [10]: 8.8 nM

From patent publication US20090291088A1 (Biogen, published 2009)
